Test results published in patent US20250339569A1 (3B PHARMACEUTICALS, published 2025).
Starred links: 1 amine or outer side, 2 acyl side, 3 side chain; linkers in the order of their positions; H or OH if unused. Positions of bridges follow the written chain, without caps; N, C: chain ends. Non-standard residues stand in square brackets, D forms with d. Groups on a side chain read outwards from the residue. Primed or numbered codes have the meaning given here. *: point of attachment. APAc″ = 2-(4-(amino)piperidin-1-yl)acetic acid, NC1CCN(CC(=O)*)CC1; DOTA = O=C(O)CN1CCN(CC(=O)O)CCN(CC(=O)*)CCN(CC(=O)O)CC1; Ttds(3) = NCCCOCCOCCOCCCNC(=O)CCC(=O)*; mXylylene = c1cc(C[*:1])cc(C[*:2])c1; 3Amb = NCc1cccc(C(=O)O)c1; dNMeA = CN[C@H](C)C(=O)O; 4Amc = not defined here; AEEA = NCCOCCOCC(=O)O; Ttds″ = Ttds spacer; Sar = CNCC(=O)O

B1: 3BP-3428 (peptide)
peptide: Ac-K([AEEA-DOTA])VYCE[dP]DWLTWAC-NH2
modifications: linker 4-13 via mXylylene
notes: also called Ac-Lys(DOTA-O2Oc)-Val-Tyr-[Cys(3MeBn)-Glu-pro-Asp-Trp-Leu-Thr-Trp-Ala-Cys]-NH2
B2: 3BP-2837 (peptide)
peptide: Ac-VYCEGDWLTWQC-NH2
modifications: linker 3-12 via mXylylene
SMILES: CC(=O)N[C@H](C(=O)N[C@@H](Cc1ccc(O)cc1)C(=O)N[C@H]1CSCc2cccc(c2)CSC[C@@H](C(N)=O)NC(=O)[C@H](CCC(N)=O)NC(=O)[C@H](Cc2c[nH]c3ccccc23)NC(=O)[C@H]([C@@H](C)O)NC(=O)[C@H](CC(C)C)NC(=O)[C@H](Cc2c[nH]c3ccccc23)NC(=O)[C@H](CC(=O)O)NC(=O)CNC(=O)[C@H](CCC(=O)O)NC1=O)C(C)C
B3: 3BP-3429 (peptide)
peptide: {DOTA-3Amb}-VYCE[dP]DWLTWAC-NH2
modifications: linker 3-12 via mXylylene
SMILES: CC(C)C[C@@H]1NC(=O)[C@H](Cc2c[nH]c3ccccc23)NC(=O)[C@H](CC(=O)O)NC(=O)[C@H]2CCCN2C(=O)[C@H](CCC(=O)O)NC(=O)[C@@H](NC(=O)[C@H](Cc2ccc(O)cc2)NC(=O)[C@@H](NC(=O)c2cccc(CNC(=O)CN3CCN(CC(=O)O)CCN(CC(=O)O)CCN(CC(=O)O)CC3)c2)C(C)C)CSCc2cccc(c2)CSC[C@@H](C(N)=O)NC(=O)[C@H](C)NC(=O)[C@H](Cc2c[nH]c3ccccc23)NC(=O)[C@H]([C@@H](C)O)NC1=O
notes: also called DOTA-Mamb-Val-Tyr-[Cys(3MeBn)-Glu-pro-Asp-Trp-Leu-Thr-Trp-Ala-Cys]-NH2
B4: 3BP-3270 (peptide)
peptide: {DOTA-Ttds(3)}-VYCE[dA]DWLTWQC-NH2
modifications: linker 3-12 via mXylylene
notes: also called DOTA-Ttds-Val-Tyr-[Cys(3MeBn)-Glu-ala-Asp-Trp-Leu-Thr-Trp-Gln-Cys]-NH2
B5: 3BP-3430 (peptide)
peptide: {DOTA-4Amc}-VYCE[dP]DWLTWAC-NH2
modifications: linker 3-12 via mXylylene; reading uncertain
notes: also called DOTA-4Amc-Val-Tyr-[Cys(3MeBn)-Glu-pro-Asp-Trp-Leu-Thr-Trp-Ala-Cys]-NH2
B6: 3BP-3281 (peptide)
peptide: Ac-VYCE[dNMeA]DWLTWAC-NH2
modifications: linker 3-12 via mXylylene
SMILES: CC(=O)N[C@H](C(=O)N[C@@H](Cc1ccc(O)cc1)C(=O)N[C@H]1CSCc2cccc(c2)CSC[C@@H](C(N)=O)NC(=O)[C@H](C)NC(=O)[C@H](Cc2c[nH]c3ccccc23)NC(=O)[C@H]([C@@H](C)O)NC(=O)[C@H](CC(C)C)NC(=O)[C@H](Cc2c[nH]c3ccccc23)NC(=O)[C@H](CC(=O)O)NC(=O)[C@@H](C)N(C)C(=O)[C@H](CCC(=O)O)NC1=O)C(C)C
notes: also called Ac-Val-Tyr-[Cys(3MeBn)-Glu-nma-Asp-Trp-Leu-Thr-Trp-Ala-Cys]-NH2
B7: 3BP-3284 (peptide)
peptide: Ac-VYCE[dA]DWLTWGC-NH2
modifications: linker 3-12 via mXylylene
SMILES: CC(=O)N[C@H](C(=O)N[C@@H](Cc1ccc(O)cc1)C(=O)N[C@H]1CSCc2cccc(c2)CSC[C@@H](C(N)=O)NC(=O)CNC(=O)[C@H](Cc2c[nH]c3ccccc23)NC(=O)[C@H]([C@@H](C)O)NC(=O)[C@H](CC(C)C)NC(=O)[C@H](Cc2c[nH]c3ccccc23)NC(=O)[C@H](CC(=O)O)NC(=O)[C@@H](C)NC(=O)[C@H](CCC(=O)O)NC1=O)C(C)C
notes: also called Ac-Val-Tyr-[Cys(3MeBn)-Glu-ala-Asp-Trp-Leu-Thr-Trp-Gly-Cys]-NH2
B8: 3BP-3052 (peptide)
peptide: Ac-VYCAGDWLTWQC-NH2
modifications: linker 3-12 via mXylylene
SMILES: CC(=O)N[C@H](C(=O)N[C@@H](Cc1ccc(O)cc1)C(=O)N[C@H]1CSCc2cccc(c2)CSC[C@@H](C(N)=O)NC(=O)[C@H](CCC(N)=O)NC(=O)[C@H](Cc2c[nH]c3ccccc23)NC(=O)[C@H]([C@@H](C)O)NC(=O)[C@H](CC(C)C)NC(=O)[C@H](Cc2c[nH]c3ccccc23)NC(=O)[C@H](CC(=O)O)NC(=O)CNC(=O)[C@H](C)NC1=O)C(C)C
B9: 3BP-3046 (peptide)
peptide: Ac-VYCE[dA]DWLTWQC-NH2
modifications: linker 3-12 via mXylylene
SMILES: CC(=O)N[C@H](C(=O)N[C@@H](Cc1ccc(O)cc1)C(=O)N[C@H]1CSCc2cccc(c2)CSC[C@@H](C(N)=O)NC(=O)[C@H](CCC(N)=O)NC(=O)[C@H](Cc2c[nH]c3ccccc23)NC(=O)[C@H]([C@@H](C)O)NC(=O)[C@H](CC(C)C)NC(=O)[C@H](Cc2c[nH]c3ccccc23)NC(=O)[C@H](CC(=O)O)NC(=O)[C@@H](C)NC(=O)[C@H](CCC(=O)O)NC1=O)C(C)C
notes: also called Ac-Val-Tyr-[Cys(3MeBn)-Glu-ala-Asp-Trp-Leu-Thr-Trp-Gln-Cys]-NH2
B10: 3BP-3307 (peptide)
peptide: Ac-VYCE[Sar]DWLGWQC-NH2
modifications: linker 3-12 via mXylylene
SMILES: CC(=O)N[C@H](C(=O)N[C@@H](Cc1ccc(O)cc1)C(=O)N[C@H]1CSCc2cccc(c2)CSC[C@@H](C(N)=O)NC(=O)[C@H](CCC(N)=O)NC(=O)[C@H](Cc2c[nH]c3ccccc23)NC(=O)CNC(=O)[C@H](CC(C)C)NC(=O)[C@H](Cc2c[nH]c3ccccc23)NC(=O)[C@H](CC(=O)O)NC(=O)CN(C)C(=O)[C@H](CCC(=O)O)NC1=O)C(C)C
notes: also called Ac-Val-Tyr-[Cys(3MeBn)-Glu-Nmg-Asp-Trp-Leu-Gly-Trp-Gln-Cys]-NH2
B11: 3BP-3058 (peptide)
peptide: Ac-VYCEGDWLTWAC-NH2
modifications: linker 3-12 via mXylylene
SMILES: CC(=O)N[C@H](C(=O)N[C@@H](Cc1ccc(O)cc1)C(=O)N[C@H]1CSCc2cccc(c2)CSC[C@@H](C(N)=O)NC(=O)[C@H](C)NC(=O)[C@H](Cc2c[nH]c3ccccc23)NC(=O)[C@H]([C@@H](C)O)NC(=O)[C@H](CC(C)C)NC(=O)[C@H](Cc2c[nH]c3ccccc23)NC(=O)[C@H](CC(=O)O)NC(=O)CNC(=O)[C@H](CCC(=O)O)NC1=O)C(C)C
B12: 3BP-3432 (peptide)
peptide: {DOTA-APAc″}-VYCE[dP]DWLTWAC-NH2
modifications: linker 3-12 via mXylylene
notes: also called DOTA-APAc-Val-Tyr-[Cys(3MeBn)-Glu-pro-Asp-Trp-Leu-Thr-Trp-Ala-Cys]-NH2
B13: 3BP-3280 (peptide)
peptide: Ac-VYCE[dA]DWLTWAC-NH2
modifications: linker 3-12 via mXylylene
SMILES: CC(=O)N[C@H](C(=O)N[C@@H](Cc1ccc(O)cc1)C(=O)N[C@H]1CSCc2cccc(c2)CSC[C@@H](C(N)=O)NC(=O)[C@H](C)NC(=O)[C@H](Cc2c[nH]c3ccccc23)NC(=O)[C@H]([C@@H](C)O)NC(=O)[C@H](CC(C)C)NC(=O)[C@H](Cc2c[nH]c3ccccc23)NC(=O)[C@H](CC(=O)O)NC(=O)[C@@H](C)NC(=O)[C@H](CCC(=O)O)NC1=O)C(C)C
notes: also called Ac-Val-Tyr-[Cys(3MeBn)-Glu-ala-Asp-Trp-Leu-Thr-Trp-Ala-Cys]-NH2
B14: 3BP-3304 (peptide)
peptide: Ac-VYCE[Sar]DWLTWGC-NH2
modifications: linker 3-12 via mXylylene
SMILES: CC(=O)N[C@H](C(=O)N[C@@H](Cc1ccc(O)cc1)C(=O)N[C@H]1CSCc2cccc(c2)CSC[C@@H](C(N)=O)NC(=O)CNC(=O)[C@H](Cc2c[nH]c3ccccc23)NC(=O)[C@H]([C@@H](C)O)NC(=O)[C@H](CC(C)C)NC(=O)[C@H](Cc2c[nH]c3ccccc23)NC(=O)[C@H](CC(=O)O)NC(=O)CN(C)C(=O)[C@H](CCC(=O)O)NC1=O)C(C)C
notes: also called Ac-Val-Tyr-[Cys(3MeBn)-Glu-Nmg-Asp-Trp-Leu-Thr-Trp-Gly-Cys]-NH2
B15: 3BP-3282 (peptide)
peptide: Ac-VYCE[dP]DWLTWAC-NH2
modifications: linker 3-12 via mXylylene
SMILES: CC(=O)N[C@H](C(=O)N[C@@H](Cc1ccc(O)cc1)C(=O)N[C@H]1CSCc2cccc(c2)CSC[C@@H](C(N)=O)NC(=O)[C@H](C)NC(=O)[C@H](Cc2c[nH]c3ccccc23)NC(=O)[C@H]([C@@H](C)O)NC(=O)[C@H](CC(C)C)NC(=O)[C@H](Cc2c[nH]c3ccccc23)NC(=O)[C@H](CC(=O)O)NC(=O)[C@H]2CCCN2C(=O)[C@H](CCC(=O)O)NC1=O)C(C)C
notes: also called Ac-Val-Tyr-[Cys(3MeBn)-Glu-pro-Asp-Trp-Leu-Thr-Trp-Ala-Cys]-NH2
B16: 3BP-3313 (peptide)
peptide: Ac-VYCE[Sar]DWLTWAC-NH2
modifications: linker 3-12 via mXylylene
SMILES: CC(=O)N[C@H](C(=O)N[C@@H](Cc1ccc(O)cc1)C(=O)N[C@H]1CSCc2cccc(c2)CSC[C@@H](C(N)=O)NC(=O)[C@H](C)NC(=O)[C@H](Cc2c[nH]c3ccccc23)NC(=O)[C@H]([C@@H](C)O)NC(=O)[C@H](CC(C)C)NC(=O)[C@H](Cc2c[nH]c3ccccc23)NC(=O)[C@H](CC(=O)O)NC(=O)CN(C)C(=O)[C@H](CCC(=O)O)NC1=O)C(C)C
notes: also called Ac-Val-Tyr-[Cys(3MeBn)-Glu-Nmg-Asp-Trp-Leu-Thr-Trp-Ala-Cys]-NH2
B17: 3BP-3279 (peptide)
peptide: {DOTA-Ttds″}-VYCE[dA]DWLTWAC-NH2
modifications: linker 3-12 via mXylylene; not fully specified
notes: also called DOTA-Ttds-Val-Tyr-[Cys(3MeBn)-Glu-ala-Asp-Trp-Leu-Thr-Trp-Ala-Cys]-NH2
B18: 3BP-3427 (peptide)
peptide: Ac-K(DOTA)VYCE[dP]DWLTWAC-NH2
modifications: linker 4-13 via mXylylene
SMILES: CC(=O)N[C@@H](CCCCNC(=O)CN1CCN(CC(=O)O)CCN(CC(=O)O)CCN(CC(=O)O)CC1)C(=O)N[C@H](C(=O)N[C@@H](Cc1ccc(O)cc1)C(=O)N[C@H]1CSCc2cccc(c2)CSC[C@@H](C(N)=O)NC(=O)[C@H](C)NC(=O)[C@H](Cc2c[nH]c3ccccc23)NC(=O)[C@H]([C@@H](C)O)NC(=O)[C@H](CC(C)C)NC(=O)[C@H](Cc2c[nH]c3ccccc23)NC(=O)[C@H](CC(=O)O)NC(=O)[C@H]2CCCN2C(=O)[C@H](CCC(=O)O)NC1=O)C(C)C
notes: also called Ac-Lys(DOTA)-Val-Tyr-[Cys(3MeBn)-Glu-pro-Asp-Trp-Leu-Thr-Trp-Ala-Cys]-NH2
B19: 3BP-3840 (peptide)
peptide: Ac-K(DOTA)VYCE[dP]DWLTWSC-NH2
modifications: linker 4-13 via 3MeBn
notes: also called Ac-Lys(DOTA)-Val-Tyr-[Cys(3MeBn)-Glu-pro-Asp-Trp-Leu-Thr-Trp-Ser-Cys]-NH2

Each binder was assayed against human carbonic anhydrase 9 (CAIX) (human, UniProt Q16790 38-459) (assay: FACS competition on HT-29 cells against tracer 3BP-2776; pIC50 category A = pIC50 >8.0).
Experimental: CAIX-expressing human HT-29 colorectal cancer cells (DSMZ, RRID: CVCL_0320) were cultured in McCoys's 5A modified medium (Biochrom, #F1015) including 10% fetal calf serum (FCS), 2 mM L-glutamine, 100 U/ml penicillin and 100 μg/mL streptomycin. Cells were detached with Accutase (Biolegend, #423201) and washed in FACS buffer (PBS including 1% FCS). Cells were diluted in FACS buffer to a final concentration of 500.000 cells per ml. 200 μL of the cell suspension were transferred to a u-shaped non-binding 96-well plate (Greiner) and cells were washed in ice-cold FACS buffer.
When biotinylated compounds were used an additional incubation step with 1 μg/mL APC-Streptavidin (Miltenyi; #130-106-791) in 50 μL FACS buffer for 30 minutes on ice was performed.
Cells were washed twice with ice-cold FACS buffer and analyzed in an Attune NxT flow cytometer (Thermo Fisher). Median fluorescence intensities (MFI) of the APC/Cy5-channel were calculated by Attune NxT software.

pIC50, > 8 pic50:
B1
B2
B3
B4
{DOTA-Ttds″}-VYCEGDWLTWAC-NH2 (linker 3-12 via mXylylene; not fully specified) [3BP-3272]
B5
B6
B7
B8
B9
B10
B11
B12
B13
B14
B15
B16
B17
B18
B19
